{
  "source": "patent US20200132691A1",
  "about": "“DETECTION AND TARGETING OF TUMOR-PROMOTING NEUTROPHILS” (THE GENERAL HOSPITAL CORPORATION, priority 2017, published 2020)",
  "key": {"splenocytes": {"test_system": "splenocytes", "assay": "In vitro assay of DT-mediated direct effects on hematopoietic cells (splenocytes)"}, "[1]": {"assay": "Body weight monitoring for DT-induced toxicity", "assay_type": "in vivo, mouse", "details": "DT-treated mice", "description": "(§1) Ocn^Cre;Dtr, Ocn^Cre;Dtr/Yfp and control mice lacking either transgene were treated i.p. with DT (100 μl; 20 μg/kg, Sigma-Aldrich) every other day for 9 days with a total of five injections per mouse. In some experiments, osteoblast depletion was performed for 3 consecutive days using DT. For both DT treatment protocols, osteoblast depletion was verified. Body weight was monitored to control for DT-induced toxicity. Osteoblast depletion was verified using histological evaluation of femurs, IHC for osteocalcin and ex vivo whole mount immunofluorescence of Ocn^Cre;Dtr/Yfp mice."}, "neutrophils": {"test_system": "neutrophils", "assay": "Neutrophil counts in wild-type mice treated with DT", "details": "bone marrow"}, "Ocn+ cells": {"test_system": "Ocn+ cells", "assay": "In vivo osteoblast depletion with diphtheria toxin", "set-up": "species or system mouse", "details": "OcnCre;Dtr or OcnCre;Dtr/Yfp mice; flow cytometry, immunohistochemistry, in situ microscopy, bone histomorphometry", "description": "as §1"}},
  "data": [
    {"substance": "diphtheria toxin [DT]", "values": [
      {"measurement": "viability of hematopoietic cells", "setting": "splenocytes; DT concentration used, in vitro DT titration and in vivo cellular staining by flow cytometry", "value": "did not affect the viability"},
      {"measurement": "killing of CD11b+ myeloid cells", "setting": "splenocytes; cells from OcnCre;Dtr mice, in vitro", "value": "not killed"},
      {"measurement": "killing of DTR+ cells", "setting": "splenocytes; positive control, in vitro", "value": "ability to kill"},
      {"measurement": "body weight", "setting": "[1]", "value": "did not affect"},
      {"measurement": "neutrophil counts", "setting": "neutrophils", "value": "maintained"},
      {"measurement": "Ocn+ cell numbers", "setting": "Ocn+ cells", "value": "significantly reduced"}
    ]}
  ]
}
